Source: article PMC6517241 (Chembiochem : a European journal of chemical biology, 2019)

What was measured:
[1] = tested on: SH-SY5Y human neuroblastoma cells; experiment: Flow cytometry quantitation of cellular uptake, SH-SY5Y; type: cell-based
[2] = Cellular toxicity; type: cell-based; details: Figure S6
[3] = ref 5b; cited from earlier work

Substance	Potency of L- and D-enantiomers as pore-forming antibacterial peptides [3]	also measured
L-Aβ42-TAMRA: L-Aβ42 N-terminally labeled with 5(6)-Carboxytetramethylrhodamine (TAMRA)		Cell fluorescence after incubation at 4 °C (membrane binding) ([1]; SH-SY5Y, 2 h, 4 °C, flow cytometry (Figure S12)): low fluorescence; Influence of N-terminal TAMRA modification on cellular toxicity [2]: not influence cellular toxicity to any significant degree
L-Aβ42: natural L-stereoisomer of the 42 amino acid isoform of Amyloid β		Fraction taken up through chirality-dependent mechanisms (class I) ([1]; interpretation of the ~5:1 ratio): approximately 80%
cecropin	equally potent	
magainin	equally potent	
melittin	equally potent	
